These results are taken from US20160002343A1 (AbbVie / Abbott, published 2016).

Assay [1] deals with T1, mouse Transferrin Receptor overexpressed on Hek 293 cells (mouse, UniProt Q62351 1-763).
T1 construct: whole, on cells; also called mTfR; Hek293/mTfR
As to the kind of experiment: mTfR binding cell-based assay. Here is the method: (§1) Meso-scale Discovery (MSD) Electrochemiluminescence (ECL) assays to screen for antibodies or DVD-Ig proteins that bind a desired target antigen expressed on the cell surface were performed as follows: Hek 293 cells overexpressing mouse Transferrin Receptor were added onto MSD 96-well plates (MSD Cat# L11 XB-3, lot#2290-EA). The plates which were blocked using blocking buffer (30% FBS Serum (Hyclone) in PBS) at 37° C. for 1 hour. After incubating at room temperature (RT) for 30 minutes with mild agitation, plates were washed with DPBS 3 times and Abs/DVD-Ig proteins (10,000 ng/ml) were added. After incubating for 1 hour at RT, plates were washed 3 times with DPBS and 25 μl of Goat anti-human Sulfo TAG (MSD Cat# R32AC-, Lot# W001162) at 1 μg/ml was added. Following incubation at RT for 1 hour, plates were washed and MSD read buffer was added before reading on a MSD SECTOR Imager 6000. EC50 values were obtained using Xlfit4 software package.

Assay [2] concerns the target T1, mouse Transferrin Receptor …. Kind of assay: cell-based MSD-ECL binding, Hek293/mTfR cells. Here is the method: as §1
Another assay addresses T2, rmTfR (123-763) (mouse, UniProt Q62351 123-763).
T2 construct: range 123-763; also called recombinant mouse transferrin receptor 123-763
Kind of assay: Biacore SPR, antibody captured by anti-human IgG Fc, rmTfR (123-763) in solution. Here is the method:
The BIACORE assay (Biacore, Inc, Piscataway, N.J.) was used to determine the affinity of antibodies or DVD-Ig proteins with kinetic measurements of on-rate and off-rate constants. Binding of antibodies or DVD-Ig protein to a target antigen (for example, a purified recombinant target antigen) was determined by surface plasmon resonance-based measurements with a Biacore® 1000 or 3000 instrument (Biacore® AB, Uppsala, Sweden) using running HBS-EP (10 mM HEPES [pH 7.4], 150 mM NaCl, 3 mM EDTA, and 0.005% surfactant P20) at 25° C. All chemicals were obtained from Biacore® AB (Uppsala, Sweden) or otherwise from a different source as described in the text. For example, approximately 5000 RU of goat anti-human IgG, (Fcγ), fragment specific polyclonal antibody (Pierce Biotechnology Inc, Rockford, Ill.) diluted in 10 mM sodium acetate (pH 4.5) was directly immobilized across a CM5 research grade biosensor chip using a standard amine coupling kit according to manufacturer's instructions and procedures at 25 μg/ml. Unreacted moieties on the biosensor surface were blocked with ethanolamine. Modified carboxymethyl dextran surface in flowcell 2 and 4 was used as a reaction surface. Unmodified carboxymethyl dextran without goat anti-human IgG in flow cell 1 and 3 was used as the reference surface. For kinetic analysis, rate equations derived from the 1:1 Langmuir binding model were fitted simultaneously to association and dissociation phases of all eight injections (using global fit analysis) with the use of BIAevaluation 4.0.1 software. Purified antibodies or DVD-Ig proteins were diluted in HEPES-buffered saline for capture across goat anti-human IgG specific reaction surfaces. Antibodies or DVD-Ig proteins to be captured as ligands (25 μg/ml) were injected over reaction matrices at a flow rate of 5 μl/minute. The association and dissociation rate constants, kon (M⁻¹ s⁻¹) and koff (s⁻¹) were determined under a continuous flow rate of 25 μl/minute. Rate constants were derived by making kinetic binding measurements at different antigen concentrations ranging from 10-200 nM. The equilibrium dissociation constant (M) of the reaction between antibodies or DVD-Ig proteins and the target antigen was then calculated from the kinetic rate constants by the following formula: KD=koff/kon. Binding was recorded as a function of time and kinetic rate constants were calculated.
In general terms: In SPR one partner is held on a chip, and binding of the other changes the refractive index at the surface.

The target in assay [3] is T1, mouse Transferrin Receptor …. As to the kind of experiment: EC50 column of Table 13, taken as the cell-based mTfR binding assay. Here is the method: as §1

T1 sequence (Q62351 whole entry): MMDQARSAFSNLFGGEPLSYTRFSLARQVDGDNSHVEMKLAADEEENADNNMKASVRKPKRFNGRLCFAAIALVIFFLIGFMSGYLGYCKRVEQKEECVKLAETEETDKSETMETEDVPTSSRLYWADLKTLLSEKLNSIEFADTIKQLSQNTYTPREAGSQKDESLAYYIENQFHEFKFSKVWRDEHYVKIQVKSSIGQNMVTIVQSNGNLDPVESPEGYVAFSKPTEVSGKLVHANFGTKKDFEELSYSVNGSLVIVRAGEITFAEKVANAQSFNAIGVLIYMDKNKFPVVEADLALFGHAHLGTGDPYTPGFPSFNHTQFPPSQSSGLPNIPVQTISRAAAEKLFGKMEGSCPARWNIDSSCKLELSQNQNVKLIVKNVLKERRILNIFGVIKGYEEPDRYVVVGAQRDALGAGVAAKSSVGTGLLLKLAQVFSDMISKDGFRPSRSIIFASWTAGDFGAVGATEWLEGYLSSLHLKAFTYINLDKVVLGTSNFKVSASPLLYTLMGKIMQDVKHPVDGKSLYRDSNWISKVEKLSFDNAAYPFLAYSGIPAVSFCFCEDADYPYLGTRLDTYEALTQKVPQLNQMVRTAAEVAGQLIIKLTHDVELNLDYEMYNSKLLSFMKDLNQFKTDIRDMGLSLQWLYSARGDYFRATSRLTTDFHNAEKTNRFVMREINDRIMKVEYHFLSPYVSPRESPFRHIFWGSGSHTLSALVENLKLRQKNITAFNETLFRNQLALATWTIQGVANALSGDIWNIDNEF
T2 sequence (Q62351 123-763): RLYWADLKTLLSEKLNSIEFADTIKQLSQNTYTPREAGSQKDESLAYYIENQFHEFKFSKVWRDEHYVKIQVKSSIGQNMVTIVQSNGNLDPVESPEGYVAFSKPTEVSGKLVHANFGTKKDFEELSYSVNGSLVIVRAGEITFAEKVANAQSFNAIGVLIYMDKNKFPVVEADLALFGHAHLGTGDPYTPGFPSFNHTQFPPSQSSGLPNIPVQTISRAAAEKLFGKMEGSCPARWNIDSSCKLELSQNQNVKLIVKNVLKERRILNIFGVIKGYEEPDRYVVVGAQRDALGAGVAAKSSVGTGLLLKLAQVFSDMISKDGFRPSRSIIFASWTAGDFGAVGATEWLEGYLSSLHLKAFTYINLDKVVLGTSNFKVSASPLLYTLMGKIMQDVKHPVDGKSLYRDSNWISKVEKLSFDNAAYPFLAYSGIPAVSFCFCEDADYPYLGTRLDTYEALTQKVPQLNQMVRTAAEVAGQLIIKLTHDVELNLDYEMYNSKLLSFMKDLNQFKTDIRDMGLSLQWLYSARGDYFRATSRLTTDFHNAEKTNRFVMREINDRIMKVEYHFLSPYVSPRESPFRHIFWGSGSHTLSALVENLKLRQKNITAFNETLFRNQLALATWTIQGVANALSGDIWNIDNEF

B1: AB403 (antibody, V domains shown)
VH: EVQLVESGGGLVQPGGSLRLSCAASGFTFSNYGMHWIRQAPGKGLEWIAMIYYDSSKMNYADTVKGRFTISRDNAKNSLYLQMNSLRAEDTAVYYCAVPTSHYVVDVWGQGTTVTVSS
VL: EIVMTQSPATLSVSPGERATLSCQASQDIGNWLAWYQQKPGQSPRLLIYGATSLADGVPARFSGSRSGTEFTLTISSLQSEDFAVYYCLQAYNTPWTFGGGTKVEIK
notes: also called humanized variant of AB221
In the case of B1, the concentration giving a half-maximal response (EC50) – broadly, the midpoint of the concentration-response curve – in assay [1] was 0.09 nM. This molecule also yielded an EC50 in assay [2] of 0.09 nM. Moreover, in the assay with rmTfR (123-763), binding was put at a Kd of 3.8 nM; the koff – broadly, a measure of how fast the partners let go of each other – turned out to be 8.39e-05 s⁻¹; the association rate constant (kon) – broadly, a measure of how fast the partners come together – stood at 22000 M⁻¹ s⁻¹.

B2: DVD2671 (bispecific antibody)
VH: EVQLLESGGGLVQPGGSLRLSCAASGFTFSNYGMSWVRQAPGKGLEWVASIRSGGGRTYYSDNVKGRFTISRDNSKNTLYLQMNSLRAEDTAVYYCVRYDHYSGSSDYWGQGTLVTVSSASTKGPSVFPLAPEVQLVESGGGLVQPGNSLTLSCVASGFTFSNYGMHWIRQAPKKGLEWIAMIYYDSSKMNYADTVKGRFTISRDNSKNTLYLEMNSLRSEDTAMYYCAVPTSHYVVDVWGQGVSVTVSS
VL: DVVMTQSPLSLPVTPGEPASISCKSSQSLLDSDGKTYLNWLLQKPGQSPQRLIYLVSKLDSGVPDRFSGSGSGTDFTLKISRVEAEDVGVYYCWQGTHFPRTFGQGTKVEIKRTVAAPDIQMTQSPASLSASLEEIVTITCQASQDIGNWLAWYQQKPGKSPQLLIYGATSLADGVPSRFSGSRSGTQFSLKISRVQVEDIGIYYCLQAYNTPWTFGGGTKLELK
notes: DVD-Ig; also called AbetaLSTfR
Consider B2, for which the EC50 in assay [2] and in assay [3] was 1.2 nM each time.
